Source: patent US20220049008A1 (MULTITUDE, published 2022)
Values joined by “and” are separate entries in the source; they are usually repeats but may differ in a detail not shown here. Equal values may be shown once.

B1: Humanized HIS029 (antibody, V domains shown)
VH: QVQLVQSGSELKKPGASVKVSCKASGYTFTNYWINWVRQAPGQGLEWMGNIYPSDSYTNYNQKFKDRAVFSVDKSVSTAYLQISSLKAEDTAVYYCTKWGDSDYWGQGTTVTVSS
VL: DIQMTQSPSSLSASVGDRVTITCKASQDINRYLRWFQQKPGKSPKTLIYRANRLVDGVPSRFSGSGSGQDYTLTISSLQPEDFATYYCLQYDEFPFTFGQGTKLEIK
notes: also called humanized HIS029 antibody
B2: HIS029-vc-MMAE (other)
VH: QVHLQQPGAELVRPGASVKLSCKASGYTFTNYWINWVKQRPGQGLEWIGNIYPSDSYTNYNQKFKDKATLTVDKSSSTAYVHLSSPTSEDSAVYYCTKWGDSDYWGQGTTLTVSS
VL: DIKMTQSPSSMYASLGERVTITCKASQDINRYLRWFQQKPGKSPKTLIYRANRLVDGVPSRFSGSGSGQDYSLTISSLEYEDMGIYYCLQYDEFPFTFGSGTKLEIK
modifications: monomethyl auristatin E coupled through a maleimidocaproyl-Val-Cit-PAB linker by a thiol-based reaction; sites not stated
B3: HIS029 (antibody, V domains shown)
VH: B2 VH
VL: B2 VL
notes: Monoclonal antibody from a hybridoma, V regions amplified with mouse Ig primers; also called anti-CD44 v7/8 antibody; antibody clone HIS029

Assays:
[1] = target: T1, CD44 v7/8 (human CD44 v7/8 splice variant) on CD44+ cells (human, UniProt P16070 21-742); experiment: flow cytometry on CD44+ A253 cells, antibody titration
T1 construct: Endogenous protein on tumour cell lines (D562, A253, NCI-H520, BXPC3); no signal peptide limits are stated; also called CD44 variant 7/8; HCAM
T1 sequence (P16070 21-742 limits assumed, change not shown): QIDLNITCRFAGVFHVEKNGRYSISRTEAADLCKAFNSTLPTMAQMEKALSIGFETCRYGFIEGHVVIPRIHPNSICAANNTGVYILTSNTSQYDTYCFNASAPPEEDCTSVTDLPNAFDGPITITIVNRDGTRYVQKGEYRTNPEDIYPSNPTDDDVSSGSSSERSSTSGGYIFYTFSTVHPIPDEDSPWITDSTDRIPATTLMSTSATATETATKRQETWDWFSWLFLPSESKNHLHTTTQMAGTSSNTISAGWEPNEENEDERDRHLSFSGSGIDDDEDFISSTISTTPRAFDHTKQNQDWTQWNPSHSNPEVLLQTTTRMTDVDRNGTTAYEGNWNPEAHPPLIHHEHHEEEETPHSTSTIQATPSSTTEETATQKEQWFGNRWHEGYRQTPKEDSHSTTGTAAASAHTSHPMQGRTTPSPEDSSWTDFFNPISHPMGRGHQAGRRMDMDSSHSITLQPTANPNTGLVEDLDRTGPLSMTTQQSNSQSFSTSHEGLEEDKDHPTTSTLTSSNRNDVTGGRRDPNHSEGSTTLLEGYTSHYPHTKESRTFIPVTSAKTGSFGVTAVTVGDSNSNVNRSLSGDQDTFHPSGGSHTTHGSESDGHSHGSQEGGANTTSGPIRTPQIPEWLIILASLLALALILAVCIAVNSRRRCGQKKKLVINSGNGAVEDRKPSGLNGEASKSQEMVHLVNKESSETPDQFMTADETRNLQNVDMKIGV

[2] = target: T1, CD44 v7/8 (human CD44 v7/8 splice …); experiment: flow cytometry on A253 cells; humanized HIS029, A253 cells
[3] = target: T1, CD44 v7/8 (human CD44 v7/8 splice …); experiment: cell-based or functional assay
[4] = target: T1, CD44 v7/8 (human CD44 v7/8 splice …); experiment: flow cytometry on A253 cells; HIS029 (parental antibody), A253 cells

Row | Binder | EC50 (read off the curve) [1] | Kd [2] [nM] | cell viability, IC50 (A253 cells) [3] [nM] | cell viability, IC50 (BXPC3 cells) [3] [nM] | cell viability, IC50 (D562 cells) [3] [nM] | cell viability, IC50 (NCI-H520 cells) [3] [nM] | Kd [4] [nM]
1 | B1 | ~40 nM and ~60 nM | 36 | – | – | – | – | –
2 | B2 | – | – | 0.797 | 0.189 | 0.63 | 0.588 | –
3 | B3 | ~40 nM | – | – | – | – | – | 35
